Experimental data from article PMC3229090 (Biochemistry, 2011).
Ends that are not written are not given here.

What was measured:
HeLa cells = experiment: HeLa proliferation assay; assay type: cell-based, Human; details: pH 6.0 and 7.4, treatment 3 hrs, data not shown
[1] = Reverse phase C18 HPLC elution as measure of hydrophobicity; assay type: physicochemical; details: reverse phase C18, 30 min gradient from 99:1 A/B to 70:30 A/B, water/acetonitrile + 0.05% TFA, flow rate 1 ml/min
[2] = measured previously; ref [20]; cited from earlier work

| Substance | Antiproliferative effect at either pH (HeLa cells) | HPLC elution time of phallotoxins [1] [min] | Log P of phalloidin-rhodamine [2] |
| --- | --- | --- | --- |
| phallacidin (AWLVDCP; also: cyclic peptide, R1 = H, R2 = COOH) | do not demonstrate an antiproliferative effect | 30.3 | – |
| phalloidin-rhodamine | – | – | -0.05 |
